From US6001353A, “20α-alpha-hydroxy steroid dehydrogenase related material and methods” (priority 1997, dated 1999)
One block for each molecule: values may come before it.

Tests used:
[1] = test system: 20α-HSD mRNA; assay: Northern blot of corpus luteum 20α-HSD mRNA in hypophysectomized pregnant rats; format: in vivo, rat; details: rats hypophysectomized day 3, 125 μg twice daily, tissue on day 7
Description: For these studies, Holtzman pregnant rats were hypophysectomized on day 3 and treated with either prolactin (NIADDK oPRL-18, 125 μg, twice daily) or with vehicle (control). On day 7, corpus luteum and various other tissues (brain, decidua, ovary, and uterus) were obtained for analysis.
Total RNA from the harvested tissues was isolated by the method of Chomzynski and Sacchi [Anal. Biochem. 162:156-159 (1984)] and equal aliquots (20 μg) were electrophoresized and transferred to nylon membranes, or slot blotted onto Genescreen (DuPont, Wilmington, Del.) membrane. RNA was prehybridized for 16 hours at 42° C. in 40% formamide, 6×SSC, 5×Denhardt's, 20 mM NaH2 PO4, 0.2% SDS and 100 μg/ml salmon sperm DNA. Hybridization was completed in the same solution with the addition of ^32 P-labeled rat 20α-HSD cDNA (10^6 cpm/ml) at 42° C. for 12-16 hours. Blots were washed twice in 05.×SSC and 0.1% SDS (15 minutes, room temperature), twice in 0.2×SSC and 0.1% SDS (15 minutes, 42° C.), twice in 0.2×SSC and 0.1% SDS (15 minutes, 56° C.) and twice in 01.×SSC and 0.1% SDS (15 minutes, 56° C.).

[2] = test system: Pregnant Sprague-Dawley rats; assay: Anti-reproductive effect in pregnant rats: serum progesterone (RIA) and termination of pregnancy; format: in vivo, rat
Description: Pregnant Sprague-Dawley rats were treated with purified 20α-HSD produced by a bacterial expression system (see Example 1) to assess the effect of the enzyme on (1) progesterone levels and (2) the possible termination of pregnancy. More particularly, animals were divided into two treatment groups (7 rats per group: 6 receiving treatment, 1 control) and were injected (intraperitoneally) with the purified recombinant 20α-HSD and an eqimolar dose of NADPH. Injections were administered on day 8 of pregnancy and continued for 72 hours.
Group 1 received intraperitoneal injections of the purified 20α-HSD (167 μg with an equimolar dose of NADPH) every 4 hours, continuing for 72 hours. Group 2 received intraperitoneal injections of the purified 20α-HSD (250 μg with an equimolar dose of NADPH) every 6 hours, continuing for 72 hours. The control treatment groups received an equal amount of GST alone with an eqimolar dose of NADPH. Blood samples were collected every 12 hours via jugular veins. Serum progesterone levels were determined by standard radioimmunoassay techniques [Gibori et al., Endocrinology 100:1483-1495 (1977)].

[3] = test system: purified rat liver PKC; assay: In vitro kinase assay, phosphorylation of 20α-HSD by PKC; format: biochemical; details: bacterially expressed enzyme, [γ-32P]ATP
Description: (§1) Purified recombinant 20α-HSD (of the bacterial expression system) was incubated with various protein kinases after an initial incubation with alkaline phosphatase (to ensure that the protein was in a non-phosphorylated state) and subsequently assayed for 20α-HSD activity.
(§2) More particularly, purified bacterially expressed recombinant 20α-HSDwas first incubated in […] Tris-HCl (pH 8), 1 mM MgCl2, 1 mg/ml BSA, 0.5 mM dithiothreitol, and 60 U alkaline phosphatase coupled to agarose beads for 30 min. at 30° C. After centrifugation, the supernatant containing 20α-HSD was used as a substrate in various in vitro kinase assays. The protein kinase A (PKA), protein kinase C (PKC) and insulin receptor-associated tyrosine kinase activities were measured as described previously [Raz et al., Biochem. J. 269:603-607 (1990), Azhar et al., Am J. Physiol, 260:E1-E7 (1991)]. src kinase (p60^src) activity was assayed as described by Simonson and Herman [Simonson et al., J. Biol Chem., 268:9347-9357 (1993)]. […]

[4] = Cyclooxygenase assay: conversion of [3H]arachidonic acid; format: biochemical; details: purified preparations from either expression system
Description: (§3) To test for prostaglandin endoperoxide synthase type catalytic activity of recombinant 20α-HSD, both cyclooxygenase activity (which converts arachidonic acid into the hydroperoxide, PGG2) and peroxidase activity (which reduces PGG2 and other hydroperoxides to the corresponding alcohol, such as PGH2) were measured. The cyclooxygenase assay was performed by following the conversion of [^3 H] arachidonic acid [Dupont-New England Nuclear Research Products, Boston, Mass.] to [^3 H]PHG2 and [^3 H]PHE2 [Mitchell et al. Proc. Natl. Acad. Sci. USA 90:11693-11697, 1994]. Peroxidase activity was measured by monitoring the oxidation of N,N,N',N', tetramethyl-p-phenylenediamine at 611 nm [Iwata et al., Arch. Biochem. Biophys. 282:70-77 (1990)].

[5] = Peroxidase activity: oxidation of tetramethyl-p-phenylenediamine at 611 nm; format: biochemical; details: purified preparations from either expression system
Description: as §3

[6] = test system: src kinase (p60^src); assay: In vitro kinase assay, phosphorylation of 20α-HSD by src kinase; format: biochemical; details: bacterially expressed enzyme
Description: as §1
(§4) More particularly, purified bacterially expressed recombinant 20α-HSDwas first incubated in […] Tris-HCl (pH 8), 1 mM MgCl2, 1 mg/ml BSA, 0.5 mM dithiothreitol, and 60 U alkaline phosphatase coupled to agarose beads for 30 min. at 30° C. After centrifugation, the supernatant containing 20α-HSD was used as a substrate in various in vitro kinase assays. The protein kinase A (PKA), protein kinase C (PKC) and insulin receptor-associated tyrosine kinase activities were measured as described previously [Raz et al., Biochem. J. 269:603-607 (1990), Azhar et al., Am J. Physiol, 260:E1-E7 (1991)]. src kinase (p60^src) activity was assayed as described by Simonson and Herman [Simonson et al., J. Biol Chem., 268:9347-9357 (1993)].

[7] = test system: protein kinase A (PKA); assay: In vitro kinase assay, phosphorylation of 20α-HSD by PKA; format: biochemical; details: bacterially expressed enzyme, [γ-32P]ATP
Description: as §1, §2

[8] = target: T1, recombinant 20α-HSD (Rattus norvegicus, UniProt P51652); assay: Catalytic activity of phosphorylated versus non-phosphorylated 20α-HSD, radiochemical; format: biochemical; parameters: a DNA fragment of 1.2 Kb containing the entire coding region of 20α-HSD; GST (removed with thrombin) (N, cleaved yes); made in house; host or cells: E. coli DH5α (pGEX-4T-2)
T1 sequence (P51652 1-323): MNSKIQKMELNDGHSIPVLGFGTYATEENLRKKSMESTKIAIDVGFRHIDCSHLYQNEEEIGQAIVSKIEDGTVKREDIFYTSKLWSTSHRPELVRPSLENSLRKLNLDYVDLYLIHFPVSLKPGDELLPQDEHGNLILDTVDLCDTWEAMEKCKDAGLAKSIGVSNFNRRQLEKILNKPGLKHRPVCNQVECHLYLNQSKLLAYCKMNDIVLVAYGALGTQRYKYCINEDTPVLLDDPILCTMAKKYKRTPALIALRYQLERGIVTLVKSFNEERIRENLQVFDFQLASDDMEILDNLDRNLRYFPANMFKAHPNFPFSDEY
Description: Enzyme activity of the recombinant 20α-HSD was determined by the rate of conversion of [1-2^3 H]-20α-hydroxy-pregn-4-ene-3-one (20α-hydroxprogesterone) to [1,2^3 H]progesterone in the presence of NADPH as described by Jones & Hsueh [J. Biol. Chem. 256:1248-1254 (1981)]. Enzyme activity was measured in this manner due to the fact that in an in vitro setting the reaction may be reversed, i.e. conversion of 20α-hydroxyprogesterone to progesterone. The assay mixtures (0.05 ml) contained 100 μM [1,2^3 H]hydroxyprogesterone [Dupont-New England Nuclear Research Products, Boston Mass.] […] Following incubation at 37° C. for 30 minutes, the [^3 H]progesterone content of each sample was determined after isolation by thin layer chromatography isolation. One unit of enzyme activity is defined as that amount of enzyme catalyzing the formation of 1 nmol of [^3 H]progesterone/minute from [1,2^3 H]hydroxyprogesterone. Specific activity is expressed as units/min/mg protein. The protein concentration was determined by the Bradford method using bovine serum albumin [Sigma Chemical Co, St. Louis, Mo.] as the standard [Bradford, Anal. Biochem. 72:248-254 (1976)]. […] Acta. 799:51-58 (1984); Noda et al., Biochim Biophys. Acta. 1079:112-118 (1991)]. […]

[9] = test system: insulin receptor-associated tyrosine kinase; assay: In vitro kinase assay, phosphorylation of 20α-HSD by insulin receptor tyrosine kinase; format: biochemical; details: bacterially expressed enzyme
Description: as §1, §4

[10] = Group 1 protocol, laparoscopy at 72 hour end point

B1: prolactin (protein, UniProt P01240 31-229, looked up)
Prolactin: TPVCPNGPGNCQVSLRDLFDRAVMVSHYIHNLSSEMFNEFDKRYAQGKGFITMALNSCHTSSLPTPEDKEQAQQTHHEVLMSLILGLLRSWNDPLYHLVTEVRGMKGVPDAILSRAIEIEEENKRLLEGMEMIFGQVIPGAKETEPYPVWSGLPSLQTKDEDARHSAFYNLLHCLRRDSSKIDTYLKLLNCRIIYNNNC
notes: prolactin (NIADDK oPRL-18)
expression of 20α-HSD mRNA in corpora lutea [1]: markedly reduced

phosphorylation of 20α-HSD by PKC [3]: readily phosphorylated | phosphorylation of 20α-HSD by src kinase [6]: failed to phosphorylate | phosphorylation of 20α-HSD by PKA [7]: readily phosphorylated | 20α-HSD activity after phosphorylation with PKA [8]: not significantly affected | 20α-HSD activity after phosphorylation with PKC ([8]; ATP-Mg2+, diacylglycerol, phosphatidylserine): unaffected | phosphorylation of 20α-HSD by insulin-receptor-associated tyrosine kinase [9]: failed to phosphorylate
B2: 20α-hydroxysteroid dehydrogenase (protein)
chain: T1 sequence (P51652 1-323)
time to significant decline of serum progesterone levels ([2]; Group 1: 167 μg i.p. every 4 hours): ≤ 48 h | animals aborted totally [2, 10]: 5 animals | animals partially aborting [2, 10]: 2 animals | time to significant decline of serum progesterone levels ([2]; Group 2: 250 μg i.p. every 6 hours): 60 h | time to termination of pregnancy ([2]; pregnant rats, i.p. with equimolar NADPH from day 8 of pregnancy): ≤ 72 h | circulating progesterone ([2]; pregnant rats, i.p. with equimolar NADPH from day 8 of pregnancy, bacterially expressed enzyme): marked decrease | cyclooxygenase activity [4]: Neither peroxidase not cyclooxygenase activity was detected | peroxidase activity [5]: Neither peroxidase not cyclooxygenase activity was detected
